This note sets out measurements from the supplement of paper PMC12042874.

± gives the uncertainty stated by the source.

A short description of this data set: amyloid nucleation score (Sup35N fusion, yeast selection) (log enrichment); library NNK1; higher = more nucleation; inactive = no reads after selection. Summed up: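 Plasmid inserts were Illumina-sequenced at input and output from psi-negative yeast expressing Sup35N fused to peptides of 20 random codons. The yeast were induced with 100 μM copper sulfate for 24 hours and grown 7 days at 30°C on medium lacking adenine and uracil, and sequences with under 100 input reads were excluded. Nucleation score is the DiMSum log enrichment of output over input reads, centred on the mode score of non-aggregating sequences.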
NKTVVLDHPHVCFPGSRSHL: the amyloid nucleation score result is “inactive”.
The value for NKYNSYKKNYPKRIDWSGLN was -0.983 ± 1.4.
The value for NKYQLHMILKGFQGSAYWSV was -0.453 ± 0.81.
As for NLAGI, the amyloid nucleation score was 0.716 ± 0.88.
For the substance NLCRSNTRVQNAKKCAL, the amyloid nucleation score is -0.168 ± 0.26.
For the substance NLFLMLVDLVSLGTTI, the amyloid nucleation score was 2.08 ± 0.51.
As to NLGMALRSCMTSTHSVSMW, the amyloid nucleation score came out at 0.433 ± 0.47.
NLHVQGVTRNGC: the amyloid nucleation score was 3.84 ± 0.076.
Then NLIWMVKYCYIIFRIPTTCL, with 1.77 ± 0.42; and NLKCF, with 0.905 ± 0.47.
With NLLFAVMLVFSRVQVVFNNG, the amyloid nucleation score was -0.355 ± 0.25.
As for NLQVKFVVYIMPLQKD, the amyloid nucleation score stood at 0.747 ± 0.44.
Then NLSCIHGLYYGSRLVSGLYQ, with 0.15 ± 0.71.
Substance NLSTSMSRREIMQQHQHRRL yielded an amyloid nucleation score of 0.594 ± 0.64.
Substance NLTANVLKVMSRHCNGFWIF displayed an amyloid nucleation score of 0.29 ± 0.46.
The value for NLTWRGSRDTFECYVDGA was -0.186 ± 0.47.
Regarding NLYVNN, the amyloid nucleation score was -0.623 ± 1.
Then NMFAWV, with “inactive”; and NMGIKVLSKYNVIYYSAGTP, with 8.343 ± 0.048.
Regarding NMINLMGTKVDMYCRRVRGI, the amyloid nucleation score was -1.53 ± 0.84.
Take NMQTYGGLKE: the amyloid nucleation score was 0.116 ± 0.71.
Then NMTVITVVSWLCFVRRTHNA, with -1.06 ± 0.82; and NNGGASVGFWRMPCHWTRMH, with -0.371 ± 0.59; and NNGKSIPFPGGARKVSLGSG, with 0.087 ± 0.26.
The substance NNIFGLSIYKYCQGRYCNCS returned an amyloid nucleation score of 8.226 ± 0.055.
For the substance NNKGSLSPGNLDTSDESEFS, the amyloid nucleation score amounted to 0.652 ± 0.29.
In turn, NNLWCSFS came in with an amyloid nucleation score of -0.577 ± 0.43.
In turn, NNMLILFTCGFYYKVYSPVQ registered an amyloid nucleation score of 3.18 ± 0.17.
The substance NNMYTNVRVLKGRCLWVY returned an amyloid nucleation score of 0.376 ± 0.28.
With NNQSTGWCETN, the amyloid nucleation score entry was “inactive”.
The value for NNVNEVWWA was 0.249 ± 0.69.
The substance NPAEL returned an amyloid nucleation score of 0.222 ± 0.54.
For NPCWTVYLEFL, the amyloid nucleation score came to 0.186 ± 0.27.
The value for NPGNTN was 0.17 ± 0.55.
The value for NPNMVSRPCRVGRRPFDVGL was -0.022 ± 0.45.
In turn, NPRVNNYRVNGWKRGIRDRA displayed an amyloid nucleation score of 0.66 ± 0.35.
NPSIPCPQAACNMWY: the amyloid nucleation score worked out at 0.819 ± 0.36.
On to NPVRMMRNRLVLGKNCAPRG, for which the amyloid nucleation score was -0.024 ± 0.28.
The value for NPWLSNFSCK was 0.244 ± 0.47; that for NQANQSQPCTDSFILRNGVV was “inactive”; that for NQTSLAILSRSSQGHGTKVY was 0.623 ± 0.95.
For NRACRMMQWS, the amyloid nucleation score is -0.441 ± 1.2.
For the substance NRCRDCREVYIKFPTWAWSW, the amyloid nucleation score is -0.253 ± 0.43.
Take NRCYMVYKFTV: the amyloid nucleation score was -0.01 ± 0.33.
In the case of NRHRRVPFRISTALLPVKLQ, the amyloid nucleation score amounted to 0.632 ± 0.5.
NRIPHGSRRSRAISKVRDA returned an amyloid nucleation score of 0.728 ± 0.97.
Then NRSRWPIHGFLIANKSPLQF, with 0.486 ± 0.38; and NRVHKADHVTYY, with “inactive”.
As to NSAVYSCL, the amyloid nucleation score entry is “inactive”.
Take NSCRCYFLLGELDLNAFNSV: the amyloid nucleation score is 1.74 ± 0.55.
The substance NSDLWIGVCAVLSGLMTIIG came in with an amyloid nucleation score of 0.509 ± 0.64.
Then NSEISRGGVMGVCAVLLMSF, with 0.273 ± 0.97; and NSFRWDLTLLLWARINVDSF, with 1.49 ± 0.7; and NSGGVWSHYFVVVMRYL, with 0.083 ± 0.46.
Then NSLKCVRSIVKRYSACHRV, with 0.387 ± 0.5; and NSPGCKCRSKGLISINST, with “inactive”; and NSPKYLKLSCSTLLTALLGR, with 1.16 ± 0.28.
The value for NSRGT was -0.28 ± 0.34; that for NSRSLFFYDSYVAGWYN was 0.542 ± 0.31; that for NSSLLDISLYDNLVQGSDWP was -0.249 ± 0.57.
For NSSVGVESHIFSIVDKMNTW, the amyloid nucleation score entry was “inactive”.
Then NSWSFGPSGTQFGLSLFYGL, with -0.979 ± 2.7; and NTGREVFIRIMCPL, with -0.212 ± 0.73.
The value for NTLKNCCLYIAVRCNAP was -0.974 ± 1.2.
The value for NTTAWPVYFYLWFRKTGWPL was -0.371 ± 0.78; that for NTYDHMTYNRGFRSM was “inactive”.
As for NVGRSAICVRSCRMSLVFDG, the amyloid nucleation score was found to be 0.11 ± 0.35.
In the case of NVLVGFI, the amyloid nucleation score was -0.851 ± 0.56.
The value for NVNETT was -0.547 ± 1.6.
The value for NVSLRFGSYPGVNVGSAFMV was -0.109 ± 0.53.
Then NVSSLQDFRVMFWIFECTTR, with 0.052 ± 0.44; and NVTCSVISNGNLSEFDVFVI, with 0.122 ± 0.75; and NVVSF, with -0.466 ± 1.2.
NVYDMFIKFGVGVASSVSAC registered an amyloid nucleation score of -1.48 ± 1.9.
As to NWEWAFRCPLWCLWDYRSTM, the amyloid nucleation score turned out to be 0.751 ± 0.57.
Then NWGWGGEFRRNMFRIVS, with “inactive”; and NWNFIRRSARVWSR, with -1.7 ± 1.2.
NWTIHVDNSGHVIRINTHYW had an amyloid nucleation score of 6.72 ± 0.074.
In turn, NWVRFIHFYYNGTRLWAEFV yielded an amyloid nucleation score of -0.915 ± 0.74.
Then NYCGLGSMYL, with 1.1 ± 0.8; and NYFNL, with 0.21 ± 0.46.
The value for NYIVKAFSVVCFTSDTSSFR was 6.08 ± 0.096.
Consider NYLGLLSEAVSRGVQLGDAT, for which the amyloid nucleation score entry is “inactive”.
The value for NYRIRAWGNNYGHQGATCLR was “inactive”.
The value for NYRISAYCDSHVRRLPEYMF was 0.175 ± 0.59.
As to NYRRQLSFLRLSGQDMLEGK, the amyloid nucleation score was determined as 0.184 ± 0.53.
The value for NYSYSFIPRSKVNGYEYGGA was -0.387 ± 0.32; that for NYTNTMWSSFLDYVVD was 0.272 ± 0.88.
The substance NYVYR displayed an amyloid nucleation score of -0.742 ± 1.2.
Then NYVYSSVVGLLIW, with -0.077 ± 0.19; and NYYCRDVI, with 0.392 ± 0.3.
In turn, NYYLECWYSCMGNTETSSKG gave an amyloid nucleation score of 0.212 ± 0.53.
Turning to NYYLVCCCKREQRLCTVGIT, the amyloid nucleation score came to 6.831 ± 0.064.
The value for PAFFCFWNNLSCVSTWSYLV was 2.44 ± 0.088.
The value for PALLEIQWSSCGV was -0.02 ± 0.72.
The substance PALNILNHYLLCKDPLFVRV displayed an amyloid nucleation score of 0.348 ± 0.37.
PAMSVGQRFYGEQHSCGLSA returned an amyloid nucleation score of -0.583 ± 0.43.
PCFRTYDCAISNLAVASRCR gave an amyloid nucleation score of 1.03 ± 0.37.
Then PCSVVV, with -0.246 ± 0.32.
In turn, PCWLQMSCR had an amyloid nucleation score of -0.148 ± 0.79.
Substance PCYWQPPRRVAVATLSAAAL displayed an amyloid nucleation score of -0.312 ± 0.49.
The value for PDFIHFY was 0.182 ± 0.38.
PFFTIKWCNFSSFIGYEPLL returned an amyloid nucleation score of -0.161 ± 0.31.
Then PFGDSAPKTIRIMAVLIFTV, with -0.237 ± 1.9.
For the substance PFTRVGLDMYLDDSVKKGWD, the amyloid nucleation score was -0.528 ± 0.36.
As for PFVGTIFVSGSGTSMENGIC, the amyloid nucleation score was -0.601 ± 0.47.
PGEVRW registered an amyloid nucleation score of -0.385 ± 1.9.
Then PGKSLIIHMCFSMSKTTENG, with 2.52 ± 0.08.
The value for PGYSVPFSCGDQVPQQLPIR was -0.538 ± 2.1; that for PHMMELSVDTKGNVLKVGSH was 0.055 ± 0.52.
Then PHPVVLASLSIDWVPRCSES, with -0.179 ± 1; and PIHDLRKLIYVTPEFYWGFY, with 0.561 ± 0.48.
In turn, PIIVDRCCFDYIRRVNVLYN displayed an amyloid nucleation score of 0.677 ± 0.48.
The substance PILKQNHWRDFGNCLAKRRE had an amyloid nucleation score of -0.281 ± 0.82.
Then PINGEGSVSTLNDMVLSRSI, with 1.26 ± 0.81; and PIRVM, with -0.495 ± 0.43.
In turn, PISCFTDHMQMFMRSNGRGL returned an amyloid nucleation score of 1.16 ± 0.29.
The value for PKFAHILTHGVSHMQWTVVK was 0.06 ± 0.35; that for PKKLRMYLPMHLSTPKRRLV was 0.565 ± 0.58.
The value for PKRPMWLIQET was -0.571 ± 0.61; that for PKVFIEKAAIYIFAL was 0.029 ± 0.51; that for PLIITTMFGASVRESFHVVL was 1.21 ± 0.4.
In turn, PLSILRKMAGVVSGCTAPTS registered an amyloid nucleation score of 0.663 ± 0.7.
The value for PLTNRNIKIHYDLLSDDKMV was 0.602 ± 0.26; that for PLVVGRVCEGYRRWCWFGRR was -0.369 ± 0.38.
The value for PMLVQLLEASWVKPVLDCIY was “inactive”; that for PMMMKIVKHDIVFSLEFHLI was “inactive”.
Then PMPSLECNGVHFIKGIRLTL, with 0.754 ± 0.99; and PNCDAYWVNWFKLRCLSHLF, with -0.489 ± 1.7.
As for PNLPGSKDNLTDRF, the amyloid nucleation score was 0.488 ± 1.2.
PNSERREAMVIMFRW showed an amyloid nucleation score of 0.633 ± 0.35.
On to PNTSEWTDWCRVLVEWGQGS, for which the amyloid nucleation score was determined as 0.394 ± 0.18.
As for PNTYGGIMECYV, the amyloid nucleation score was -0.233 ± 0.42.
Then PPRYLMRDLTHWSPYR, with 1.34 ± 0.7; and PQKLQGQIGCR, with -0.549 ± 0.47; and PQLTRSGQ, with -0.14 ± 0.28.
Then PQRQFDLIVD, with 0.563 ± 0.81; and PQSFWNARCPCPLNRLNGVW, with -0.474 ± 0.34; and PREVVAQKHCSLLQFDLLYS, with -0.556 ± 0.48.
As for PRFKTMVVTHFLSFNFYGWN, the amyloid nucleation score is -0.505 ± 0.39.
